Here are results for 1 sequence from patent US8242083B2, “Kinase substrates” (PerkinElmer Health Sciences, Inc., priority 2008, dated 2012).

Common to all, as to format: biochemical
For experiment [1], the target named is KIT (Homo sapiens, UniProt P10721). Kind of experiment: TR-FRET kinase assay, KIT. The note with it: Kinase Concentration 2 nM; 50 nM ULight-labeled substrate, 200 micromolar ATP, 2 hours. The method, then:
(§1) TR-FRET kinase assays are performed under standardized conditions: various individual kinases are incubated with 50 nM of kinase substrate BRB1 labeled with the TR-FRET acceptor dye ULight (PerkinElmer) and 200 micromolar ATP in 10 μL of kinase assay buffer (50 mM HEPES pH7.5, 10 mM MgCl2, 3 mM MnCl2, 1 mM EGTA, 2 mM DTT and 0.01% Tween-20) for 2 hours at room temperature. Reactions are stopped with EDTA, and anti-phospho-tyrosine antibodies (clone PT66) labeled with the TR-FRET europium chelate donor dye are added to a final concentration of 2 nM in a final volume of 20 μL. The TR-FRET signal emitted at 665 nm is read one hour after the addition of antibodies using a TR-FRET plate reader such as the Envision® Multilabel Plate reader (PerkinElmer). The emitted signal at 665 nm is proportional to the extent of peptide phosphorylation, Control reactions indicative of background are performed excluding ATP from the reaction.
(§2) Assay conditions are identical to those used described for FIG. 1.

Experiment [2] deals with T1, CTK (Homo sapiens, UniProt P42679).
T1 sequence (P42679 1-507): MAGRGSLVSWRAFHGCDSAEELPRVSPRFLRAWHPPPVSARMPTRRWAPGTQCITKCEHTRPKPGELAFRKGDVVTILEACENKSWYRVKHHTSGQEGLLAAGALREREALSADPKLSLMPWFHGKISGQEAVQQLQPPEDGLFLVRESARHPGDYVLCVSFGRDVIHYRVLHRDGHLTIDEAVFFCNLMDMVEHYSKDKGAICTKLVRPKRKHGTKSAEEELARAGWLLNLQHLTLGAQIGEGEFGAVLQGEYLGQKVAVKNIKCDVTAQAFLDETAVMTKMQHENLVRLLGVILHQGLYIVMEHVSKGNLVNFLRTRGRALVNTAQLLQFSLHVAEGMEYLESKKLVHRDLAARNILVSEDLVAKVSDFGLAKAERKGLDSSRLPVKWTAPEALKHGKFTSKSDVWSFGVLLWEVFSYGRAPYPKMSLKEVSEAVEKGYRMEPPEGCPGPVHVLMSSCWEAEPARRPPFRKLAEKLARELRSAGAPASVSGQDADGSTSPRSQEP
Kind of experiment: TR-FRET kinase assay, CTK. The conditions noted are these: Kinase Concentration 20 nM; 50 nM ULight-labeled substrate, 200 micromolar ATP, 2 hours. The method, then:
as §1, §2
On the technique in general: In TR-FRET formats the signal depends on donor and acceptor labels being close together.

The target of experiment [3] is T2, EphA3 (Homo sapiens, UniProt P29320).
T2 sequence (P29320 21-983): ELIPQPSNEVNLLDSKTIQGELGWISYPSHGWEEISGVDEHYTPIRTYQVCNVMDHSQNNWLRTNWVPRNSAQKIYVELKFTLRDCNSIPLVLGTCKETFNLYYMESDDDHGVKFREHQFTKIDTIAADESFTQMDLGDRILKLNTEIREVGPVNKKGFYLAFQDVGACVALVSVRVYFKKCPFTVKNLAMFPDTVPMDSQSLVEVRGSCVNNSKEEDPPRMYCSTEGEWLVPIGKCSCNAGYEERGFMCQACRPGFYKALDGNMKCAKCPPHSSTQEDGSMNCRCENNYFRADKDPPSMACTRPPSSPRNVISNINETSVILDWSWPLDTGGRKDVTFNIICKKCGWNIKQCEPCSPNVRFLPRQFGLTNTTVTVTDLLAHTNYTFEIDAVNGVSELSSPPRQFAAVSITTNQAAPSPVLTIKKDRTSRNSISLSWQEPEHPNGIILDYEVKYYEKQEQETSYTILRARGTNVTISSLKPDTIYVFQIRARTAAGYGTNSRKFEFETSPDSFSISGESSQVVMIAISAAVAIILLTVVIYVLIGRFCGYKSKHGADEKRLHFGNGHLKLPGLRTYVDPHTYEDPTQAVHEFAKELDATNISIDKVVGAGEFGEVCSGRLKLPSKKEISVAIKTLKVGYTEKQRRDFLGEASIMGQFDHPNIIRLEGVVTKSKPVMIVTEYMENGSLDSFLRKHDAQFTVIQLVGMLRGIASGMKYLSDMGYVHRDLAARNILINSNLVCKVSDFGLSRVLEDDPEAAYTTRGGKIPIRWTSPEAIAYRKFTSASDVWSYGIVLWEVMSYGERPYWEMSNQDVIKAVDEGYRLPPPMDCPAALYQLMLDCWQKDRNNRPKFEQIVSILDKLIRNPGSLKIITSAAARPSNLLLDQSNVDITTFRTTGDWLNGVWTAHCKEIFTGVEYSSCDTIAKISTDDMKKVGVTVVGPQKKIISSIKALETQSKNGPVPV
Kind of experiment: TR-FRET kinase assay, EphA3. The note with it: Kinase Concentration 0.5 nM; 50 nM ULight-labeled substrate, 200 micromolar ATP, 2 hours. How it is done: as §1, §2

The target of experiment [4] is TIE2 (Homo sapiens, UniProt Q02763). Kind of experiment: TR-FRET kinase assay, TIE2. The conditions noted are these: Kinase Concentration 0.5 nM; 50 nM ULight-labeled substrate, 200 micromolar ATP, 2 hours. The method, then:
as §1, §2

Experiment [5] has as its target IRR (Homo sapiens, UniProt P14616). Kind of experiment: TR-FRET kinase assay, IRR. The note with it: Kinase Concentration 0.5 nM; 50 nM ULight-labeled substrate, 200 micromolar ATP, 2 hours. The method, then: as §1, §2
Experiment [6] has as its target FAK (Homo sapiens, UniProt Q05397). Kind of experiment: TR-FRET kinase assay, FAK. The conditions noted are these: Kinase Concentration 3 nM; 50 nM ULight-labeled substrate, 200 micromolar ATP, 2 hours. The method, then:
as §1, §2

The target in experiment [7] is FGFR3 (Homo sapiens, UniProt P22607). Kind of experiment: TR-FRET kinase assay, FGFR3. The conditions noted are these: Kinase Concentration 0.25 nM; 50 nM ULight-labeled substrate, 200 micromolar ATP, 2 hours. The method, then: as §1, §2
FGFR3, sequence (P22607 23-806, species assumed): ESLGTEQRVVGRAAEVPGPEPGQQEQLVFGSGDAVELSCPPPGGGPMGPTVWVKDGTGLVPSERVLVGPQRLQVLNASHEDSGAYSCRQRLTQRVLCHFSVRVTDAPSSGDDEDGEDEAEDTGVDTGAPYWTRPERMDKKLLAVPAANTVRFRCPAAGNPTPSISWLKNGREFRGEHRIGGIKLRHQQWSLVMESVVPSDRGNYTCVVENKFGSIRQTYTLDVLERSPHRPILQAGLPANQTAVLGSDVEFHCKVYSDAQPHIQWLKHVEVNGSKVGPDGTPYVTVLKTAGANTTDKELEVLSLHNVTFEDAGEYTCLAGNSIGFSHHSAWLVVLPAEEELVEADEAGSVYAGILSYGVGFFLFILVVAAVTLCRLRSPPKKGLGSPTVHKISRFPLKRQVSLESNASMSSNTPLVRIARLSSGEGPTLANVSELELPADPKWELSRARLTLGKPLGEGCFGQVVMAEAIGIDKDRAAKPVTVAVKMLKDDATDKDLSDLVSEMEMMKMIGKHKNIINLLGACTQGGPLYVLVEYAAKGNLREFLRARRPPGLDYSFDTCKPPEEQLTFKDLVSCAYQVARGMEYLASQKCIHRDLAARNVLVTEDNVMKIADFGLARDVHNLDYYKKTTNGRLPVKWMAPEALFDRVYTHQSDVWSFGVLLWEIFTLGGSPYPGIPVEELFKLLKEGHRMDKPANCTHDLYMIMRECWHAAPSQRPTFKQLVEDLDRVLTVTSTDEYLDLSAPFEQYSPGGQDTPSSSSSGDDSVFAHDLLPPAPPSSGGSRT

TIE2, sequence (Q02763 23-1124, species assumed): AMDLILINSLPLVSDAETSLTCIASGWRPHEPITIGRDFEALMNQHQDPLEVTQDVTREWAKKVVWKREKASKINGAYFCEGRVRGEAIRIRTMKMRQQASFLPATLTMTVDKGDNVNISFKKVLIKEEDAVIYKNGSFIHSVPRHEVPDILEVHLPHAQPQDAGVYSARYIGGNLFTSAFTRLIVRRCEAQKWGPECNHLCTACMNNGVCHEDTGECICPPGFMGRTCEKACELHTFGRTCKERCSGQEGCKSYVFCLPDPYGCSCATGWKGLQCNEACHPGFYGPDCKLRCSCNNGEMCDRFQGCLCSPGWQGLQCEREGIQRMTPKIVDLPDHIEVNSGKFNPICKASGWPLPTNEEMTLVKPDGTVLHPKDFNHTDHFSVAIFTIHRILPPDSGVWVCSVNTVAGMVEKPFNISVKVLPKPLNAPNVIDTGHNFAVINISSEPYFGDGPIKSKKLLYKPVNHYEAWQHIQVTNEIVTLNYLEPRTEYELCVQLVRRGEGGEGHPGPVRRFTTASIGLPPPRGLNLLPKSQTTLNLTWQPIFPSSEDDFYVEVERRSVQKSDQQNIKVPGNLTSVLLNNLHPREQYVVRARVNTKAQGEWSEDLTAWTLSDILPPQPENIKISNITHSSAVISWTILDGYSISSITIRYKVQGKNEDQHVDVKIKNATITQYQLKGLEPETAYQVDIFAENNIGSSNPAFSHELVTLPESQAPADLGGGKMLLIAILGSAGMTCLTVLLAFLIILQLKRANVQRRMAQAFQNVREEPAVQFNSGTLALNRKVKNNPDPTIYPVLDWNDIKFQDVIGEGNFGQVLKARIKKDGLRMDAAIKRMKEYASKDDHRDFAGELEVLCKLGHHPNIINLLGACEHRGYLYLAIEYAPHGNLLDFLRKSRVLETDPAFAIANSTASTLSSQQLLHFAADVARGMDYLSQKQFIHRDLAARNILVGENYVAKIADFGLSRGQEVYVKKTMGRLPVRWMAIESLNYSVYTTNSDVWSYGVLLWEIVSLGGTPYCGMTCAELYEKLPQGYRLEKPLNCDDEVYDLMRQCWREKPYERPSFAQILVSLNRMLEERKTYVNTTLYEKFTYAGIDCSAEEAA
IRR, sequence (P14616 27-1297, species assumed): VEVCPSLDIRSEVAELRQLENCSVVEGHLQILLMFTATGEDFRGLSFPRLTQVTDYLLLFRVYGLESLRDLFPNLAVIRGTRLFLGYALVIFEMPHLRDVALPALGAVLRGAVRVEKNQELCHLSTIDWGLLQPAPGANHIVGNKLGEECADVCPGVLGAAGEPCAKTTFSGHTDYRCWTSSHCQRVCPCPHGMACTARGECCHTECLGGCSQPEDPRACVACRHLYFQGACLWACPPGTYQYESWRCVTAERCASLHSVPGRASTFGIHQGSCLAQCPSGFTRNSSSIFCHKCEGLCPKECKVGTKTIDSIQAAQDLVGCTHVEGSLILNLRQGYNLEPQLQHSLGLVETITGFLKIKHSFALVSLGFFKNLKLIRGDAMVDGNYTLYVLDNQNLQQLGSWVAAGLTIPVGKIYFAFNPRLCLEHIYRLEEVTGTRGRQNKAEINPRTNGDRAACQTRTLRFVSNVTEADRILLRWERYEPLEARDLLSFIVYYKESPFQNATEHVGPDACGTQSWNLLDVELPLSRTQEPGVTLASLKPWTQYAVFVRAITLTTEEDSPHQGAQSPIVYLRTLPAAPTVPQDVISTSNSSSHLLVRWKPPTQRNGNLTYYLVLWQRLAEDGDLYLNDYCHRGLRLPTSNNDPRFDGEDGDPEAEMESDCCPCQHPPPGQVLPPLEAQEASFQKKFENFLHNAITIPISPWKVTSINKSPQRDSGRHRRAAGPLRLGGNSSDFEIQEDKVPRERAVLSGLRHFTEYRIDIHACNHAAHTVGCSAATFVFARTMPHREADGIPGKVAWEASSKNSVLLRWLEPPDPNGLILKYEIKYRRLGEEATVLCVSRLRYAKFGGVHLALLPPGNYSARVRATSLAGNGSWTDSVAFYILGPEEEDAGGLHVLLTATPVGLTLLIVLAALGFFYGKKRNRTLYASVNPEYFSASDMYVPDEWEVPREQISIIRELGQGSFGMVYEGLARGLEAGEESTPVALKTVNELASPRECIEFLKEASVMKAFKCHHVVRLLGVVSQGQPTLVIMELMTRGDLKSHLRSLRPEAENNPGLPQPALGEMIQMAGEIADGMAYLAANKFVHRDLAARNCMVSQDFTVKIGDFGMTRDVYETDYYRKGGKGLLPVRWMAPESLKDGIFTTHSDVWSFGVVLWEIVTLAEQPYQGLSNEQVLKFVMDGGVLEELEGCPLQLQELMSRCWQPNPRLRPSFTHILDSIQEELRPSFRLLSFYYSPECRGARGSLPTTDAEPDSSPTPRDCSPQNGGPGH
FAK, sequence (Q05397 whole entry, species assumed): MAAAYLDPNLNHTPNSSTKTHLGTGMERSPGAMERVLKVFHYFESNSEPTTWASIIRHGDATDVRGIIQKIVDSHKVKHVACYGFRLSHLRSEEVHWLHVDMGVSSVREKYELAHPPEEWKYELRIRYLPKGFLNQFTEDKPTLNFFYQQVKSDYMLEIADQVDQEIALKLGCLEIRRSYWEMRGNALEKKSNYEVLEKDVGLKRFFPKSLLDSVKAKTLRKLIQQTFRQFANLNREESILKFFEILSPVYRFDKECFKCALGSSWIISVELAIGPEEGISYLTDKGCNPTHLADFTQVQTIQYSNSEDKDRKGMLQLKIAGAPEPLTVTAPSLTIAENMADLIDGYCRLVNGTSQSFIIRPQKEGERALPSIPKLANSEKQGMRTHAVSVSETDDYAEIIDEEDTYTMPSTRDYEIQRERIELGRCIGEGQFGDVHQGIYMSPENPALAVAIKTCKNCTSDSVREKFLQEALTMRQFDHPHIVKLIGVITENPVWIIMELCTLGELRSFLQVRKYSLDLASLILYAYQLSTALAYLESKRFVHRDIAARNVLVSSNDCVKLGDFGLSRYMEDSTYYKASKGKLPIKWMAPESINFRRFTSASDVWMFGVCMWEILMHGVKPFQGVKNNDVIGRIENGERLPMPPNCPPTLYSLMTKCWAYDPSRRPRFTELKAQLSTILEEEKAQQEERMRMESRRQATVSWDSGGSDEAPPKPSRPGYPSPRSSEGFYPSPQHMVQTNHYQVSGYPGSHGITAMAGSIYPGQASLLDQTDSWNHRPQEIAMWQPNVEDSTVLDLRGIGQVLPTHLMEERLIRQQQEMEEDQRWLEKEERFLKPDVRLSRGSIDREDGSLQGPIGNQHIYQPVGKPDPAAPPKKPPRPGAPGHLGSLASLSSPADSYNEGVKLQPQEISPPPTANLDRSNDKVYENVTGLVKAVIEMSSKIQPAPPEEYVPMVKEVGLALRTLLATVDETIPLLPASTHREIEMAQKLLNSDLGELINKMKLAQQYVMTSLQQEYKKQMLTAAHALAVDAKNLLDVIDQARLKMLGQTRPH

Turning to “C AYE AYE AYE K EYA EYA EYA K AYA EYE R (CAYEAYEAYEKEYAEYAEYAKAYAEYER; tyrosine kinase substrate peptide) [BRB1]”, the “Signal to Noise ratio with BRB1 Peptide” value is given as 1.5 in experiment [1]; 2.5 in experiment [2]; 22.4 in experiment [3]; 17.7 in experiment [4]; 19.2 in experiment [5]; 1.7 in experiment [6]. Moreover, in experiment [7], the “Signal to Noise ratio with BRB1 Peptide” value is reported as 24.4.
